This is an account of results in patent publication US20230272055A1 (Incyte, published 2023).

To fix the notation:
T1: human mutCALR on BaF3 cells stably expressing human MPL and human mutCALR (MPL-mutCALR cells) (human)
T1 construct: also called mutant calreticulin
T1 chain: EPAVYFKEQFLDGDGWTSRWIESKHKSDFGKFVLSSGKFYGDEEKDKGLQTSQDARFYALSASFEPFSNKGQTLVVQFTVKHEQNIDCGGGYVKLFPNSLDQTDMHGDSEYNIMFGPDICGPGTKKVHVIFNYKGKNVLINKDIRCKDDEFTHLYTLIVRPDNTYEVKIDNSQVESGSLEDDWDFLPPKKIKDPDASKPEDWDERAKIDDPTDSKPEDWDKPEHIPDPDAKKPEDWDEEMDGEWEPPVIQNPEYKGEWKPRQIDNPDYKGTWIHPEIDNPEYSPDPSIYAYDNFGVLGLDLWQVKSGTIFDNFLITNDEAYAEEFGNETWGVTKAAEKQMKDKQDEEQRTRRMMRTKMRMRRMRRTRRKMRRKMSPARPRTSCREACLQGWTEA

B1: anti-mutCALR antibody clone 171 (antibody, human IgG1, lambda, N297A, V domains shown)
VH: EVQLVQSGAEVKKPGASVKVSCKVSGYTLTELSMQWVRQAPGKGLEWMGGFDPDAGETMYAEKFQGRLTVTEDTSTDTVYMELRSLTSEDTALYFCATSPGYDFFDYWGQGTLVTVSS
VL: SYVLTQPPSVSVAPGQTARITCGGSDIGDEIVHWYQQKPGQAPVLVVYDDSDRPSGIPERFSGSNSGNTATLTISRAQAGDEADYYCQVWDSSSDHLIFGGGTKLTVLG
B2: anti-mutCALR antibody clone 178 (antibody, human IgG1, lambda, N297A, V domains shown)
VH: B1 VH with A55E, R84S, T87R, L93V
VL: B1 VL
B3: anti-mutCALR antibody clone 70 (antibody, human IgG1, lambda, N297A, V domains shown)
VH: B1 VH with A55D, R84S, T87R, L93V
VL: SYVLTQPPSVSVAPGKTARITCTGTSSDVGGYNYVSWYQQKPGQAPVLVVYEVSNRPSGIPERFSGSNSGNTATLTISRVEAGDEADYYCQVWDSSNDLLIFGGGTKLTVLG
B4: anti-mutCALR antibody clone 179 (antibody, human IgG1, lambda, N297A, V domains shown)
VH: B1 VH with A55D, G56A, R84S, T87R, L93V
VL: B1 VL
B5: anti-mutCALR antibody clone 69 (antibody, human IgG1, lambda, N297A, V domains shown)
VH: B1 VH with A55D, G56A
VL: B3 VL
B6: anti-mutCALR antibody clone 66 (antibody, human IgG1, lambda, N297A, V domains shown)
VH: B1 VH
VL: B3 VL
B7: anti-mutCALR antibody clone 184 (antibody, human IgG1, lambda, N297A, V domains shown)
VH: B1 VH with A55D, G56A
VL: B1 VL with A77V, Q78E
B8: anti-mutCALR antibody clone 172 (antibody, human IgG1, lambda, N297A, V domains shown)
VH: B1 VH with A55S
VL: B1 VL
B9: anti-mutCALR antibody clone 71 (antibody, human IgG1, lambda, N297A, V domains shown)
VH: B1 VH with R84S, T87R, L93V
VL: B3 VL
B10: anti-mutCALR antibody clone 65 (antibody, human IgG1, lambda, N297A, V domains shown)
VH: B1 VH with A55D
VL: B3 VL
B11: anti-mutCALR antibody clone 74 (antibody, human IgG1, lambda, N297A, V domains shown)
VH: B1 VH with A55D, G56A, R84S, T87R, L93V
VL: B3 VL
B12: anti-mutCALR antibody clone 189 (antibody, human IgG1, lambda, N297A, V domains shown)
VH: B1 VH with A55D, G56A, R84S, T87R, L93V
VL: B1 VL with A77V, Q78E
B13: anti-mutCALR antibody clone 174 (antibody, human IgG1, lambda, N297A, V domains shown)
VH: B1 VH with A55D, G56A
VL: B1 VL
B14: anti-mutCALR antibody clone 188 (antibody, human IgG1, lambda, N297A, V domains shown)
VH: B1 VH with A55E, R84S, T87R, L93V
VL: B1 VL with A77V, Q78E
B15: anti-mutCALR antibody clone 67 (antibody, human IgG1, lambda, N297A, V domains shown)
VH: B1 VH with A55S
VL: B3 VL
B16: anti-mutCALR antibody clone 181 (antibody, human IgG1, lambda, N297A, V domains shown)
VH: B1 VH
VL: B1 VL with A77V, Q78E
B17: anti-mutCALR antibody clone 72 (antibody, human IgG1, lambda, N297A, V domains shown)
VH: B1 VH with A55S, R84S, T87R, L93V
VL: B3 VL
B18: anti-mutCALR antibody clone 186 (antibody, human IgG1, lambda, N297A, V domains shown)
VH: B1 VH with R84S, T87R, L93V
VL: B1 VL with A77V, Q78E
B19: anti-mutCALR antibody clone 173 (antibody, human IgG1, lambda, N297A, V domains shown)
VH: B1 VH with A55E
VL: B1 VL
B20: anti-mutCALR antibody clone 183 (antibody, human IgG1, lambda, N297A, V domains shown)
VH: B1 VH with A55E
VL: B1 VL with A77V, Q78E
B21: anti-mutCALR antibody clone 182 (antibody, human IgG1, lambda, N297A, V domains shown)
VH: B1 VH with A55S
VL: B1 VL with A77V, Q78E
B22: anti-mutCALR antibody clone 187 (antibody, human IgG1, lambda, N297A, V domains shown)
VH: B1 VH with A55S, R84S, T87R, L93V
VL: B1 VL with A77V, Q78E
B23: anti-mutCALR antibody clone 73 (antibody, human IgG1, lambda, N297A, V domains shown)
VH: B1 VH with A55E, R84S, T87R, L93V
VL: B3 VL
B24: anti-mutCALR antibody clone 68 (antibody, human IgG1, lambda, N297A, V domains shown)
VH: B1 VH with A55E
VL: B3 VL
B25: anti-mutCALR antibody clone 55 (antibody, human IgG1, lambda, N297A)
heavy: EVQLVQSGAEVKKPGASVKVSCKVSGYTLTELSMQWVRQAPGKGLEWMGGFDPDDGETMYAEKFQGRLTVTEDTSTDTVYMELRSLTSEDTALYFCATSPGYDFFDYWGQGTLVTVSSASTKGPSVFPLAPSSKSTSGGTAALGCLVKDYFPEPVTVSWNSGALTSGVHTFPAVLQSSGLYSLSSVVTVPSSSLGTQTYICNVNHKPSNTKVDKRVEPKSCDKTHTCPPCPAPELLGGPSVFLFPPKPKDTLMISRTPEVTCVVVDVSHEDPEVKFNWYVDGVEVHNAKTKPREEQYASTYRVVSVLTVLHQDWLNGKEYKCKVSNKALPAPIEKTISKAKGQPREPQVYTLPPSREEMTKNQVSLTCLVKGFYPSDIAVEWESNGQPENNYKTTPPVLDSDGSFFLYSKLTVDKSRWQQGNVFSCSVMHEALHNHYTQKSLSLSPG
light: QSALTQPASVSGSPGQSITISCTGTSSDVGGYNYVSWYQQHPGKAPKLMIYEVSNRPSGVSNRFSGSNSGNTATLTINRVEAGDEADYYCQVWDSSNDLLIFGGGTKLTVLGQPKAAPSVTLFPPSSEELQANKATLVCLISDFYPGAVTVAWKADSSPVKAGVETTTPSKQSNNKYAASSYLSLTPEQWKSHRSYSCQVTHEGSTVEKTVAPTECS
notes: also called antibody 55
B26: anti-mutCALR antibody clone 63 (antibody, human IgG1, lambda, N297A, V domains shown)
VH: B1 VH with A55E, R84S, T87R, L93V
VL: QSALTQPASVSGSPGQSITISCTGTSSDVGGYNYVSWYQQHPGKAPKLMIYEVSNRPSGVSNRFSGSNSGNTATLTINRVEAGDEADYYCQVWDSSNDLLIFGGGTKLTVLG
B27: anti-mutCALR antibody clone 56 (antibody, human IgG1, lambda, N297A, V domains shown)
VH: B1 VH
VL: B26 VL
B28: anti-mutCALR antibody clone 58 (antibody, human IgG1, lambda, N297A, V domains shown)
VH: B1 VH with A55E
VL: B26 VL
B29: anti-mutCALR antibody clone 59 (antibody, human IgG1, lambda, N297A, V domains shown)
VH: B1 VH with A55D, G56A
VL: B26 VL
B30: anti-mutCALR antibody clone 62 (antibody, human IgG1, lambda, N297A, V domains shown)
VH: B1 VH with A55S, R84S, T87R, L93V
VL: B26 VL
B31: anti-mutCALR antibody clone 64 (antibody, human IgG1, lambda, N297A, V domains shown)
VH: B1 VH with A55D, G56A, R84S, T87R, L93V
VL: B26 VL
B32: anti-mutCALR antibody clone 61 (antibody, human IgG1, lambda, N297A, V domains shown)
VH: B1 VH with R84S, T87R, L93V
VL: B26 VL

Positions count from the first letter of the chain named.

For the test, the target named is T1, human mutCALR on BaF3 cells stably …. The test can be described thus: flow cytometry, BaF3 MPL-mutCALR cells. On the procedure: On the day of the assay, cells were washed and resuspended in assay buffer. Approximately 200,000 cells/well were added to 96-well plates and stained with the indicated concentration of antibodies for 30 minutes on ice. Cells were then washed and stained with goat anti-human secondary conjugated to R-phycoerythrin (R-PE) (Jackson Immuno Research Laboratories) for 30 minutes on ice. The cells were then washed and analyzed by flow cytometry.
On the technique in general: A flow cytometer gives signals particle by particle.
The term EC50 denotes the concentration giving half of the maximal effect. High values mean a need for much substance, low ones an effect from little substance. B1: a half-maximal effect (EC50) was put at 21.7 ng/mL and the “MPL-mutCALR AUC” value came to 50300.
On to B2, for which the concentration giving a half-maximal response (EC50) came to 4.1 ng/mL and the “MPL-mutCALR AUC” value turned out to be 63600.
With B3, the concentration giving a half-maximal response (EC50) stood at 1.9 ng/mL and the “MPL-mutCALR AUC” value is 84800.
As to B4, a half-maximal effect (EC50) was put at 5.8 ng/mL and the “MPL-mutCALR AUC” value came to 60200.
Regarding B5, the concentration giving a half-maximal response (EC50) is 2.1 ng/mL and the “MPL-mutCALR AUC” value turned out to be 71800.
The matching figures for B6: 5.8 ng/mL and 65000.
Turning to B7, the EC50 came to 6.3 ng/mL and the “MPL-mutCALR AUC” value stood at 61600.
As for B8, the 50% effective concentration (EC50) was determined as 12.4 ng/mL and the “MPL-mutCALR AUC” value turned out to be 53600.
As for B9, a half-maximal response (EC50) required 9.7 ng/mL and the “MPL-mutCALR AUC” value worked out at 55900.
Turning to B10, the EC50 came out at 5.9 ng/mL and the “MPL-mutCALR AUC” value was determined as 81200.
B11: the EC50 is 2.2 ng/mL and the “MPL-mutCALR AUC” value turned out to be 81800.
The matching figures for B12: 10 ng/mL and 57200.
Take B13: it took 4 ng/mL to reach a half-maximal effect (EC50) and the “MPL-mutCALR AUC” value stood at 63500.
As for B14, the concentration for a half-maximal effect (EC50) is 4.4 ng/mL and the “MPL-mutCALR AUC” value came out at 68000.
Regarding B15, the EC50 was determined as 8.1 ng/mL and the “MPL-mutCALR AUC” value turned out to be 63900.
For B16, the half-maximal effective concentration (EC50) is 3.5 ng/mL and the “MPL-mutCALR AUC” value was found to be 55600.
Take B17: a half-maximal effect (EC50) was put at 3.3 ng/mL and the “MPL-mutCALR AUC” value was 58000.
As for B18, the 50% effective concentration (EC50) came out at 3.9 ng/mL and the “MPL-mutCALR AUC” value was 53000.
With B19, the concentration giving a half-maximal response (EC50) stood at 4.3 ng/mL and the “MPL-mutCALR AUC” value is 67300.
The matching figures for B20: 5 ng/mL and 70700.
With B21, the concentration giving a half-maximal response (EC50) stood at 5.2 ng/mL and the “MPL-mutCALR AUC” value turned out to be 52100.
With B22, the EC50 is 3.5 ng/mL and the “MPL-mutCALR AUC” value came to 49500.
Take B23: the concentration for a half-maximal effect (EC50) is 2 ng/mL and the “MPL-mutCALR AUC” value was 67600.
Regarding B24, the midpoint of the response, the EC50, lay at 3.3 ng/mL and the “MPL-mutCALR AUC” value was 68700.
With B25, the EC50 was 10.1 ng/mL and the “MPL-mutCALR AUC” value was 73100.
Take B26: the midpoint of the response, the EC50, lay at 5.5 ng/mL and the “MPL-mutCALR AUC” value came to 69100.
B27: a half-maximal effect (EC50) was put at 6.9 ng/mL and the “MPL-mutCALR AUC” value came to 64400.
The matching figures for B28: 8.6 ng/mL and 69800.
For B29, the EC50 came out at 7.7 ng/mL and the “MPL-mutCALR AUC” value is 75700.
The matching figures for B30: 5.4 ng/mL and 58800.
The matching figures for B31: 7.2 ng/mL and 73200.
Consider B32, for which the EC50 amounted to 6.3 ng/mL and the “MPL-mutCALR AUC” value is 62400.
